Read-outs that look alike come from different tables or passages of the source.
Assays:
His-caspase-8(184-384) [1] = target: T1, His-caspase-8(184-384) (UniProt Q14790 184-384); assay: pull-down
His-caspase-8(184-384) [2] = target: T1, His-caspase-8(184-384); assay: pull-down; remark: listed apart in the source

T1 sequence (Q14790 184-384): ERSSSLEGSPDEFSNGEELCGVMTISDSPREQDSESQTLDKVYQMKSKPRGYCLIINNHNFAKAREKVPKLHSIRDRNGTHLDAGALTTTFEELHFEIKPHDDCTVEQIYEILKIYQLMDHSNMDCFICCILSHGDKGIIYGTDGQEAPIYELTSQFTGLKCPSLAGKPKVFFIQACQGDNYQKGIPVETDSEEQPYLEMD

Row | binding result (His-caspase-8(184-384) [1]) | binding result (His-caspase-8(184-384) [2]) | Binder
1 | binds |  | CQCRRKNYGQLDIFPARDTY [synthetic MUC1-CD(1-20) peptide]
2 |  | binds | CQCRRKNYGQLDIFPARDTY (domain or fragment, human) [GST-MUC1-CD(1-20)]

Source: paper PMC2536759 (Cancer research, 2008)
